For the data set, the target named is Hemoglobin (Hb) (UniProt P69905;P68871 P69905:2-142,P68871:2-147). As to the kind of experiment: pulldown; biotin-aptamer streptavidin bead sandwich chemiluminescence in blood, R2=0.9821. The conditions noted are these: tags: conjugated to magnetic beads; also captured from blood; chain copies: alpha2beta2 tetramer (inferred); label: biotin (blood detection assay); stem-loop (MFOLD, -9.67 kcal/mol). An excerpt: The detection of this embodiment is also a two-antibody assay; therefore, please refer to Example 2 for the detection process. In this embodiment, the nucleic acid sequence of SEQ ID NO: 7 with lower free energy was used as the aptamer. The aptamer was labeled by biotin and was used to replace the anti-Hb antibody in the two-antibody assay. The surface of the magnetic bead used was also conjugated with streptavidin. Upon mixing with blood, the hemoglobin-specific aptamer would bind to hemoglobin in blood. After a magnetic field was applied and the unbound substances were washed away, an acridinium ester-labeled anti-Hb antibody was added. The acridinium ester-labeled anti-Hb antibody produces chemiluminescense, thus, can be detected using luminometer.
Hemoglobin (Hb), sequence (P69905 2-142, chain 1 of 2): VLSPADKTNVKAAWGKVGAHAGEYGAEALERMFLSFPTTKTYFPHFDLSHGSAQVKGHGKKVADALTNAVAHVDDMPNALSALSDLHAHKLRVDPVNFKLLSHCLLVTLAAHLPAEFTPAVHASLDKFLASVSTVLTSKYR
Hemoglobin (Hb), sequence (P68871 2-147, chain 2 of 2): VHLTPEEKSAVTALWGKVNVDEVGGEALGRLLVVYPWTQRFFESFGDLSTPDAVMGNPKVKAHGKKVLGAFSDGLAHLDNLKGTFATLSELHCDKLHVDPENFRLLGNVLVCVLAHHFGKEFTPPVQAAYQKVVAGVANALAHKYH

B1: Hb-specific aptamer SEQ ID NO: 7 (ssDNA)
DNA: GGCAGGAAGACAAACACCAGGTGAGGGAGACGACGCGAGTGTTAGATGGTAGCTGTTGGTCTGTGGTGCTGT
Consider B1, for which the binding result is given as “binds”.

These data come from patent US20150111306, “HEMOGLOBIN A1c-SPECIFIC APTAMER, HEMOGLOBIN-SPECIFIC APTAMER, AND APPLICATIONS THEREOF” (National Tsing Hua University, published 2015).
